Reference: US20240109978A1

Target: CD19 on NALM-6 cells (CD19+ B lineage, acute lymphoblastic leukemia) (UniProt P15391)
Assay: cell-based or functional assay

Chain of UniProt P15391 (P15391 20-556 limits assumed): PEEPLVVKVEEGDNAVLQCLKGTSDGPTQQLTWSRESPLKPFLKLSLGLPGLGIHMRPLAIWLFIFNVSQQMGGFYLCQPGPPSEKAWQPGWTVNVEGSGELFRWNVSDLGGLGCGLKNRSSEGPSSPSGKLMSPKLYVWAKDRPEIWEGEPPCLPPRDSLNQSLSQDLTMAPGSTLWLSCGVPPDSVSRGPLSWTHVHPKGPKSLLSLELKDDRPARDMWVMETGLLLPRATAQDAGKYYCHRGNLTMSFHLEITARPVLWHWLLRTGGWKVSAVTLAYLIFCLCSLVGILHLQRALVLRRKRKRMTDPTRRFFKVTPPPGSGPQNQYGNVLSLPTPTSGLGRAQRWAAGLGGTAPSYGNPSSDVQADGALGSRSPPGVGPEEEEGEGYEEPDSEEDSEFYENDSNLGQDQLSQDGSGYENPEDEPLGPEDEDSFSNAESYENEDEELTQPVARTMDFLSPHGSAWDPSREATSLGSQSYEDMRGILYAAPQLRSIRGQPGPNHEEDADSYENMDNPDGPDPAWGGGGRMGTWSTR

“IgG1-based CAR (FMC63 scFv, IgG1-CH2-CH3 spacer, CD28 transmembrane and intracellular domains, and CD3zeta-signaling domain) (receptor)” showed a killing efficacy against NALM-6 cells, 18 h co-culture, 2:1 (E:T) ratio (luciferase) of 100%.
